# Experimental data: the DeepSol protein solubility set
# Experiment: soluble on expression in E. coli; label from the status in PepcDB or PDB records
row,Sequence,soluble on expression in E. coli
1,LNDAWFNSSVVRAMLTHTRVFGRYEGPEEKLFRTANYTEINCIDNYAPTEMIEVKVTDRSGAVVEGADIRFCIYNYSEFYPVVTKQSDAQGLASLRVGKGDMLIWAAKDGLFGYALSKADDRKPLAIALDNFEAQPEWADFKIVPPAGDPIPTTCSPQQISTNDARLLREDSIRAAYEATFATAEQSAALAAELGVDAPALTGILQTSRGNHADIEGFLRSVEAGKARQRAMDLLQTVSPKDLTDTPESLLKVIFRDMAEPAPEAASGEAYRHHLRYVASPRIYTEMLSSFVPTLRSILTAKEQEAMRQDPAELVRWVSSNIRLDTLYNTQYTTITPVGVWRAKRADLRSMGIFFVAMARTLGIPARYDEVTGKIQYSKELMPLRWSDVNLRESKTALKEQGSLALDYSPTALAPNPNYYSRFTVAELQPSGIIRTLYYDENEPTDLKTLFDRPKEMNAGHYFLVTGTRMASGSVLCRMRKFTVEAGKTARQPLELLHDSTDIQVIGSINAEQLYHDLSHAEDRSLLSTTGRGYFAMAILGAGQEPTNHALKDLEKVKADFEQWGRKLILLFPDADGHKRYKPADFPSLPETAVFGLDIQGRNAAMIREAANLPDATNLPIVIIADSFGRVVFVRQGYTIGLGEQMMQVIHRL,not soluble
2,LPAYEKQVEVVEKDLEQVHICLGTKAFPQNHPRRFEVYLVNTLLGGSMSSRLFQEIRERLGLAYSVYSYVVSHTDAGSLVVYVGTSPEKLDDVLDITVAELKRLKTELVPLPELESAKEQIKGSIYLSLESSDNRMTKLAKNEIYFGRYIPIHELADGFDSVTSRGILELAGEIFDERYLTLALMGKIDSAAFDVSRLAL,not soluble
3,LPHLMKYMGSKRELLDFIISSINDLDIESNWFCDLFSGTSVVGCSLKDEYNVQINDIQIYTSIFANTYLPNINKLINSTELEKIKDRVLFYVDEFYRKYPDLIFDYNSIDNYEKLTKLEIQQQNLIYSNFEIGFHLFVKYYSGTYWSYTQCVWIDSIRAVAEEYKGKSDYYIILSSLIYAMSYTSQSTGHFAQFRDVTESNMHDIMLYRIRDIWTYFEKKFLEILNMVDVEATNRYTITTLDYLDCLRLIERNTIVYADPPYSSVHYSRFYHAIETLIRYDYPNVKYKGRYREDRHQSPFGKKTEVKNAFGKLFKGVKNKNSHLILSYSDNGMITQDEIMEIGNSIMGNQYKGDIQVKEYIHSKMGRSDIHSMGVNELIISYKRQ,not soluble
4,LPLRESHTAHQATDFGVKVFQQVVQASKDRNVVFSPYGVSSVLAMLQMTTAGKTRRQIQDAMGFKVNEKGTAHALRQLSKELMGPWNKNEISTADAIFVQRDLELVQGFMPHFFKLFQTMVKQVDFSEVERARFIINDWVERHTKGMINDLLAKGAVDELTRLVLVNALYFSGQWKTPFLEASTHQRLFHKSDGSTVSVPMMAQSNKFNYTEFTTPDGLEYDVVELPYQGDTLSMFIAAPFEKDVHLSALTNILDAELIRQWKGNMTRLPRLLILPKFSLETEVDLRGPLEKLGMPDMFSATLADFTSLSDQEQLSVAQALQKVRIEVNESGTVASSSTAFVISARMAPTEMVIDRSFLFVVRHNPTETILFMGQVMEP,soluble
5,LPPGWQSYLSPQGRRYYVNTTTNETTWERPSSS,soluble
6,LRNATQRMFEIDYSRDSFLKDGQPFRYISGSIHYSRVPRFYWKDRLLKMKMAGLNAIQTYVPWNFHEPWPGQYQFSEDHDVEYFLRLAHELGLLVILRPGPYICAEWEMGGLPAWLLEKESILLRSSDPDYLAAVDKWLGVLLPKMKPLLYQNGGPVITVQVENEYGSYFACDFDYLRFLQKRFRHHLGDDVVLFTTDGAHKTFLKCGALQGLYTTVDFGTGSNITDAFLSQRKCEPKGPLINSEFYTGWLDHWGQPHSTIKTEAVASSLYDILARGASVNLYMFIGGTNFAYWNGANSPYAAQPTSYDYDAPLSEAGDLTEKYFALRNIIQKFEKVPEGPIPPSTPKFAYGKVTLEKLKTVGAALDILCPSGPIKSLYPLTFIQVKQHYGFVLYRTTLPQDCSNPAPLSSPLNGVHDRAYVAVDGIPQGVLERNNVITLNITGKAGATLDLLVENMGRVNYGAYINDFKGLVSNLTLSSNILTDWTIFPLDTEDAVRSHLGGWGHRDSGHHDEAWAHNSSNYTLPAFYMGNFSIPSGIPDLPQDTFIQFPGWTKGQVWINGFNLGRYWPARGPQLTLFVPQHILMTSAPNTITVLELEWAPCSSDDPELCAVTFVDRPVIGSSVTYDHPSKPVEKRLMPPPPQKNKDSWLDHV,soluble
7,LRSRRKPSSRIGRRPSTTQDRISTVGIELFTEQGFDATSVDEVAEASGIARRTLFRYFPSKNAIPWGDFDAHLAEMRAQLAAQPDDIPIVDGLTAALLQFNAFPASEEINHRKRMGLILRVPALQAYSVVMYEGWRNVIAEYVASRLGTSPTDHVPRTVGYLLLGVAMSAYEQWLDDDSLELNELLASGMQSLYDGLSSLGEPDTRT,soluble
8,LSAPDSITVTVADHNGVAVLSIGGEIDLITAAALEEAIGEVVADNPTALVIDLSAVEFLGSVGLKILAATSEKIGQSVKFGVVARGSVTRRPIHLMGLDKTFRLFSTLHDALTGVRGGRIDR,soluble
9,LSPPRGLVAVRTPRGVLLHWDPPELVPKRLDGYVLEGRQGSQGWEVLDPAVAGTETELLVPGLIKDVLYEFRLVAFAGSFVSDPSNTANVSTSGL,soluble
10,LSSKYSRNTELRRVEDNDIYRLAKILDENSCWRKLMSIIPKGMDVQACSGAGCLNFPAEIKKGFKYTAQDVFQIDEAANRLPPDQSKSQMMIDEWKTSGKLNERPTVGVLLQLLVQAELFSAADFVALDFLNESTPARPVDGPGALISLELLE,soluble
11,LTSGNINIGNLKVGNDYPMRVLGEIVHVPWLSKEELEEKVNYYVESGADMIDLGMVSNEDYSKDLKQIIKTVRDITDKPVSVDTLNTKELIEAVNLDVDMILSVDSGNFDELLPYLKEKNTVSVVLPTNYKTNEVPKKISEKIQNMEKILEKFKENDLLAVADPILEPINNSGCNFTESVIACYEFKKRNNIPMFFGIGNVTELFDVDSNGVNASIAAIGQEIGGNILFTPEASKKCKFSIKELKTASKMLFLAKKRNSLP,not soluble
12,LYLEQSDIEGHIGVFGSTGSGKTTTLATIACGAAEAGLPVVVADWHGEYQRLVGGGGCRPRVIDPGREGGVNPLSLGWDYSVKTALLASALGLTEPQHYMLLKLLEEHEPRSLIELHSMVEDVEENSRWDREVKRGLMRRLGPLASRAGRSLVEGEGPPIGGRGLYIVDTGSIGNVQLRKTYSILLAAYLQYKAYSRELGPLLLVVDEAHNMFDGEESFPSIMMAESRKFGLYIALATQNPHLLPLRAVSNTNTKIVHSLRWWRDLESIASALSLPRETASKLPHLGRGEAVVYAPSLGYPVLAKIVPPE,not soluble
13,MAAAAVSSAKRSLRGELKQRLRAMSAEERLRQSRVLSQKVIAHSEYQKSKRISIFLSMQDEIETEEIIKDIFQRGKICFIPRYRFQSNHMDMVRIESPEEISLLPKTSWNIPQPGEGDVREEALSTGGLDLIFMPGLGFDKHGNRLGRGKGYYDAYLKRCLQHQEVKPYTLALAFKEQICLQVPVNENDMKVDEVLYEDSSTA,soluble
14,MAAASISAIGCNQTLIGTSFYGGWGSSISGEDYQTMLSKTVAPPQQARVSRKAIRAVPMMKNVNEGKGLFAPLVVVTRNLVGKKRFNQLRGKAIALHSQVITEFCKSIGADAKQRQGLIRLAKKNGERLGFLA,not soluble
15,MAAEDELQLPRLPELFETGRQLLDEVEVATEPAGSRIVQEKVFKGLDLLEKAAEMLSQLDLFSRNEDLEEIASTDLKYLLVPAFQGALTMKQVNPSKRLDHLQRAREHFINYLTQCHCYHVAEFELPKTMNNSAENHTANSSMAYPSLVAMASQRQAKIQRYKQKKELEHRLSAMKSAVESGQADDERVREYYLLHLQRWIDISLEEIESIDQEIKILRERDSSREASTSNSSRQERPPVKPFILTRNMAQAKVFGAGYPSLPTMTVSDWYEQHRKYGALPDQGIAKAAPEEFRKAAQQQEEQEEKEEEDDEQTLHRAREWDDWKDTHPRGYGNRQNMGAAAAAALEHHHHHH,not soluble
16,MAAGESMAQRMVWVDLEMTGLDIEKDQIIEMACLITDSDLNILAEGPNLIIKQPDELLDSMSDWCKEHHGKSGLTKAVKESTVTLQQAEYEFLSFVRQQTPPGLCPLAGNSVHADKKFLDKHMPQFMKHLHYRIIDVSTVKELCRRWYPEDYEFAPKKAASHRALDDISESIKELQFYRNNIFKKKTDEKKRKIIENGETEKPVS,soluble
17,MAAGSMDGIFRNIFEGCISSCDSSIQRRPYHKNCGCALHERSRGGGSATPCRHGRSEVVMFPIQRSWSEGNSLALHLASSSSSSNLQSLSSSSSISTLASLSSTVSDIDSPI,soluble
18,MAANQNVTKKKKAVIGGIFKAELNNFLMKELAEDGYSGVEVRSTPARAEVIIMATRTQNVLGERGRRIKELTSVVQKRFGFEEGSVELYAEKVSNRGLCAVAQCESLRYKLVGGLAVRRACYGVLRFIMESGAQGVEVIVSGKLRGQRAKAMKFVDGLMIHSGHPVNDYIQQAVRHVQLRQGVIGIKVKIMLPYDPRGQNGPRNALPDHVQIVEPQEEVLPKEPHSQHKEEKKDVQVPAAQPVAPVQ,not soluble
19,MAAPDIKTIVNGINIKQSFAIQNQIRDGGDGELAKPRYQATVVWDSGYHTTSNVTDGQIIIGDEPVHYGGEGMGITPQDLLLTAVGHCLAASYIGGLSAAHINVESLHVHVSGRVNFRAAFAVEPGNPGFEDISVIVEIQTDAPQEQVTALLEKLKHMAPIPDTIMRPVPVNIEIRHQLK,not soluble
20,MAAQAVSLLREVARLEAPLEELRALQSVVQAVPLHELREQAAELRLRPLFSLLNQNNREQTALCVSILERLLQAVEPIHLARNLRLDLQRGLTHPDDSVKTLTLSQIGRIVENSEAVTEILNNAELLKQIVYCIGGENLSVAKAAIKSLSRISLTQAVLEALFESNLLDDLKNVMKTNDVVRYRVYELIIDISSVSSESLNYCTTSGLVTQLLKELTGEDVLVRATCIEMVTSLAYTHHGRQYLAQEGVIDQISNIIVGADSDPFSGFYLPGFVKFFGNLAVMDSPQQICERYPVFLEKVFEMADSQDPTMIGVAVDTVGILGSSVEGKQVLQKTGTRFERVLMRVGYQAKNASTELKIRCLDAVSSLLYLSPEQQTDDFLGMTESWFSSMSRDSLELFRGISNQPFPELHCAALKVFTAIADQPWAQRLMFNSPGFVEFVMDRSVEHDKASKDAKYELVKALANSKTVAEIFGNSNYLRLRAYLSEGPYYVKPVATTAVEGAD,soluble
21,MAARDPEATKARIFEAAVAEFARHGIAGARIDRIAAEARANKQLIYAYYGNKGELFASVLEKKMLDLAISVPVDPDDIEGWIDRLLDYHAAHPELLRLLFWEGMEYGTAELPHEAERQEHYARKVAAVRDGQERGVITDAIPAPDLLFLLVAMANWAVVVPQMKRILVGGGDAGTDGLRDSIKKAARRIVDR,not soluble
22,MAASGEEDMSELSPAAAPNLDWYEKPEETHAPEVDLETVIPPAQEPSNPAEPFCPRDLVPVVFPGPVSQEDCCQFTCELLKHILYQRHQLPLPYEQLKHFYRKAPQAEDTARKKAWLATEARNRKCQQALAELESVLSHLRDFFARTLVPQVLILLGGNALSPKEFYELDLSRLAPFGVDQGLNTAACLRRLFRAIFLADPFSELQTPPLMGTIVMVQGHRDCGEDWFQPKLNYRVPSRGHKLTVTLSCGRPSVPAMASEDYIWFQAPVTLKGFHE,not soluble
